In the NTF2 design screens of Basanta et al. (2020):

Experiment: protease stability score; higher = more stable; yeast display proteolysis, trypsin and chymotrypsin;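 note: relative to predicted unfolded state with 0 unfolded-like and 1 meaning tenfold more protease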

| Sequence | protease stability score |
| --- | --- |
| DELQRDSKQAVKLWSESVLTGDERVLKEMADPDPRVEVGEYSSHGMHEVKRLLREMRIEVEDFKDENVRVYGEKLVVDGILHIRIHINGRDEHIDRRAILIMVKVDGRWYFKSMVYR | 0.781 |
| DELRDEVRRWLTKLIEDHKTGDEKAMMELADPNVKVVIDGKELVGMELYEHFVRYWREHIRLTDLKIHDMRIQGDKVHAETRVEGNFNGKYRVIETRVLIVKINGRWFLKEIEID | 2.02 |
| DELREDSERAEEWLITASETGNEEDILKLADPNTRIDINGKDLHGRESLEHFIRRYKGVTVRIRHRDIINGKLHLDTELRIDGVTLRTELIITKVNGRWYLEEQIVR | 1.07 |
| DELREESEHARQLYWRSIFTGDEDHFEKLLDPNARVYVNGKNLHGREDVLRVFHELRFRRLHWHDFDDQGDKLFFITKTVVDFNGVKMEQRTELYLRKVDGRWHVEEIRFE | 0.997 |
| DELREHVEEVMRWFFERIKTGDEENFHKMADPDARLQVGDKNVHGRENVLKEWRRHREEIRIEDMKIRELHVIGNYAYLDIHVDITYNGKRKETRVELRVVVIDGRIEHIEIRIN | 0.439 |
| DELRKEAEEHAQHLLDLFDTGDWDRISELADPNTLVIIDINGVHINNVGWEEIRKLWEITRHHLRIEERRVESSRTFENRVELDVKDHIKVGNKKINLDSHITIDVVNGQMKRVDFQLR | 2.04 |
| DELRKESEDLVRILIEIFHTGDEDVFKRMADPHVRLIAENRIVVGRDLVSRFFRHLLEKYPNVTDHVDVRRIILVGDWLHIDLRIDIEIGDKRHEHDVKIHVRKIDGRWVITEIHVK | 1.85 |
| DELRTHAKKMILILFHHLLTGDEEWLHRFMDPSTRRDVGDKELHGMEQITHDIVKEIFLRGAEIHITIRTFRFQGNYLDANIEIKIIVNGQEIHFEVLIHIVKVDGVWLVRSMRFH | 1.43 |
| DELTDSREHALNLYIHKLETGDWNLHERFLDPNVRVDYDGVDLHGREIYRQWETERLEIAGIKHLELKRKSVQGEKIRIDGIEKFDGKEVKTHVIILKVNGKWILETVIFK | 0.171 |
| DELTEDLKHAMTIFLHMLITGDEHWIHDLLDPNTRLEFEGREFVGREDAREEWRKISEEIRVHHVEMKDIHVFDGVIIVDGRMDGEVNGRRTHLNVFFVFHKVNGKWLMRQHSLR | 1.42 |
| DELTEELRHLAHLMIVSLLTGDPSVFQRYLDPNTKSVVNGKNIHGMEEFDKIILEELKRVDHLEIELKRIDAFDGVTHIDGKLKLRIGDKTVETRMEVNIFTINGKVKSIEISRQ | 1.33 |
| DELTEEVRKFLERLWRATHTGNEKEFWELVDPNVRDDINGRILHGRETVIRIITELGFKVRHNEFRDERVVGEYATVHGNFNVDINGKEHEVDVEIIVEKVNGVWTLKYRHFR | 1.54 |
| DELTEILKHAVERLLRHIVTGDEDSVSELADPNVKVDFNGQEYHGMHFFSHLASRFKGLRLELTELHSVGNYMDTRMHVEVNGKNIELILHSKKVNGKWSLERSEFH | 1.26 |
| DELTEIMLRIAQLILTILLTGNEDHFKRLFDPNVRLTINGVDFVGREWIVHFMRNLTDELRIKDNKIEDIRVQGDKAKVDSRLDGEVDGQHMELRTSYVLIKIDGRWSVHSVEFR | 1.26 |
| DELTELAEKAKELFVRIEKTGDEKTWSEYADPDVRIHVNGVDLHGREESLKWMHDLRERIKNMRVEFKDFKIEIIGNKVIIFIDGRLRYDGRELELESVYYVSKFNGRWRVESEELRIR | 1.37 |
| DELTESVREFIEHFIRALETGDWHILHRLLDPHVKLNVNGVEFHGREIIVEFLREIRIHSFIVHHVRIQGDWIDIDGETDGVINGRRIRTRTRIHLHKIDGRWQIKSESVI | 2.09 |
| DELTEVADYLLEHFIRNLITGNEERVRHLADPHVRVIEVYGDKVEMRHGRDSMLKWMHDWRHHIRLKHYQIEHIEVQGEKSVVHGRLRGNIDGRDIDTRTHIEVVHIDGRFTSMRYEVR | 0.555 |
| DELTHAVTRFHKETMDAVRTGNEEWHSRLLDPNTRIHIGEFNNVGMEQVIEILRRVKNLRIHHVHLDHIDFYDGRADIHGTVHGIWNGRHRKVKHEHFLLKIDGVWYLEEIRVE | 0.371 |
| DELTKEFEHFLEMLRRAQETGDEETVAKLMDPDVRIIIDGRNIIGREELTRFVSEWREEITVNEKHLKVINGRIHVDGEYHSRIRFDGREQRYSTRVHIVTIKVDGQWLLRTVHIG | 1.05 |
| DELTNEHERYLHFLWEMIKTGDEENLENLVDPHARLEFENREFHGREDVRKWLVEIRFHRVHLRRMEVQGNKVILDTELDGEFNGQRVRHTTKTHALKVNGQWLLHELIIK | 1.25 |
| DELTRDFEEATELLIRILLTGDEDIFREMADPNVRLHYGDKTFIGREEFVKWLHQWRIEDIKIDHVDLQGDYAIVHGRIRTVIGDKEHKVDTKWIIRKYNGKWDIREVHIR | 2.07 |
| DELTREMDRVHEELVRSLTTGDEDRLASMMDPNARLRIDGVNFIGRDKIREFWHQIDHSSMHLHHIHVYGDKIRLEGELILNFNGVEHNHETLMIIKKVDGKWVIESIHLK | 1.79 |
| DELTRQMRTFAERWIHAERTGDEEILRELMDPHAKLDVKQGDKRHDWHGRERITEFIRRMGIKHIQVDHVELQGEKIHMHVTMYVDGQVLDSTLKLWVVDGVTKSVEIEFK | 1.2 |
| DELTTLAREFLRLIKEVLETGDERTMHELADPNYRIRIGDKLVHGWEQQSELIIRIRTELGMTVKDSRIEDSHVQGDKLVVRVRLDMIQGDKKDSVDRIVRVDKINGKWIMSEIELI | 1.49 |
| DELWELAFFIMKILLHLHLTGDEEMWSSYADPNVRFTLRVGDKEVKRHGMEDVEKFQTELEREIRVDHFDERRTHYYNGRARVDGHIDGLVNGRPVHFRTELHVHTIDGVVREVEIIIE | -0.045 |

| Sequence | protease stability score |
| --- | --- |
| DEMDEHARDLFELLLRIWLTGDEHELRELADPHVRIHVGDKNHVGMDKFAHEFIRHVQERGVRIEIRIRDHHAINGVSHSDGEIVLNYDGREYRMDTKIIMVIYNGKVKELRFHIR | 1.39 |
| DEMDEISKEAWRMLKEITRTGDEDLMHKNVDPNARVIYGDKVVHGRERVTKILVEMRIDHEEHRDSRVVGNKVELDVHFDGEFDGRRFRTDVHWVIVKINGQWRIKEHVIL | 1.22 |
| DEMDELAERIYETWVKRHLTGDEKVIEELMDPNVRIDIVVGDKKIHLIGRETASSFARRWFDHLRIDDMRMHSVETINGQIHSEVEVHRRIGDKERFILTRIEMHVINGKIHSIRLEIE | 1.1 |
| DEMDEVMERWAREYISWEKTGDEEKAKKYVDPNVKTHIDFNGRHVENIGMESEFNFFRELGITIHDIKIREIELQGDKVRIKGRIVFQIGDFEIIIERTVHIVVINGQDRHSEFRFE | 0.194 |
| DEMDHWVMEMFEHLLKLFLTGDEEKWERLADPNVKTRFIINGKDVRLHGREHFKKLVDELRITSVDLRDIRAVGNKAEVEGRVEGEFDGQTHILDMRVRFEIINGKLKKEEYVIR | 1.27 |
| DEMEDSSRWALEVEMKSFKTGDERSLYEMVDPHAKFEFENHHDHGRSAVELWREQADHMHIDFRLKDMRLVGDFIIIHGVELVHNHVNGRDIDLNLDVRIISRKINGRWILHHVLFR | 1.38 |
| DEMEEESHTVLKLIVESFRTGDEEEVRHLADPNVRLDVDGQRNHGWKMLLKFFRQIRWHDVELHDIELQGDKMHIIGHVDGNVNGRRRRLDTHILLVKIDGKWRLELVHIH | 1.55 |
| DEMEEHSRHLVELFWHWTDTGNEDLIRKNADPNVRLEVNGVHAHGWELYIRMMNQIRIEDRKINDVEVQGDKMRVDGEVQIYYNGKRVDDHLKLHLVVVDGKLKSVHRELE | 1.31 |
| DEMEEKIRTHMSLLVEYLDTGDEEITKSMLDPNTMAFYGDKLHIGREEAEEILREIRVHHLDIKRIDHQGDKIRVDGEMDGIVNGKRYRTRVEIFSTKINGRWIIEQRVIR | 1.04 |
| DEMEEQIKRLIHLLAHYLRTGDEHSTEELADPNVRIHIDGKEYHGRELFIKFLHERLRHLGIKHIHIHIKDIREIDGRIHIDGELEQHIDGKERRMKQEMLVEKIDGQWHIKELEIE | 2.59 |
| DEMEESAERMIEIYLRWLETGDEDSLVENIDPNVRVEIGDKRYHGREEVMHFLSSIQQRIKGARFHLKHFEIQGEYVDIHMEQRVGDKTMDRRVIFQKIDGRWLLKRSQVR | 1.5 |
| DEMEETTERITRLIHHYHRTGDWRLLSDLFDPHAKSEVNGVRLHGWHEMREFFENEMRELGIENVRFRYHLHDYRIFDGRVDLDVRLEIRIGDKEDHMESHIHTEKVNGQWRLRTLSLN | 0.412 |
| DEMEKMSRDVHKQLKNAFETGDESEMERLLDPHAKIDIGDKRLHGMEEYSHLLHEWRIKDLHIKDIQVQGDKAISDTHRYLEIGDKEYEREVIVYVIKVDGRWIIHSLVFR | 0.777 |
| DEMEKWSEMALDLIAETVETGDEHTYRRNFDPHTRVNVNGRHLHGMEVWLKELHELGIDRIEMDMKDIRIQGDKAIIILTLIINGRFHHVSIVSVKIDGRWHLHSVKYD | 0.33 |
| DEMEREVEKWVRIYLHALRTGDERILENMVDPEARTHINGRHDHGRDSLHKILKEMGFDHMHVEIRDVRVVNGQIHLEEIIRVDVDGRRITITVEVVIVKIDGRWIVKSFHIR | 1.17 |
| DEMERIIETALELLIKSERTGDEDLYREFLDPHTIIDINGKIIHGREEFVRWFTEIRVHELKLRDMEIQGEFAIIYGEVDGRIGDKHFHTSVRLIVYKIDGRWIMRWNELN | 1.42 |
| DEMERNEELALKIIEETQRTGDWHMIYEQLDPHVRIIIGDKTLVGREHVEEWLHRIDHLHVDDMKLEHSRPINGRILLDVHMHVHIRYGDKQVKHTTHVHIIMFKFNGRWYLKIVHIH | 2.65 |
| DEMHEYTERLLHLLTFAQITGDERIHERLADPNVKIHINGREFHGREEVWHSLEEIRVRHTELRESDIQGDKINVNGDVDLHFNGVDIVTKVRIVVDKVNGRWRISFLRID | 0.546 |
| DEMKEEQRKFSELAIHNFETGDEDTFHRLADPHTKVEINGVLHIGRETVTTFFSHYWELFGVDHFEEKDRKIEIQGEKVITRIRGIIHFNGRQTDVLIRLEIRKINGRWILHSFTIEHI | 0.579 |
| DEMKEWIRELIERWTHAFLTGDEDELKRLVDPHAKLDINGRDVIGREDFVEHLRRLFEELGVKHVSSRMRDIKIVNGRAHVDSEFRLRVGEKQESHRMHIISDKYNGRWVIQSIHVE | 1.93 |
| DEMQEVLERFAHEWFHNLHTGDEDTLLKLADPNVRVHVGDKDLIGRELWKEELHKMKGLKLELHDYHAINGRIHLDVTQKFNGKEVELEMDIIVVNGRVKEIRHQRR | 1.06 |
| DEMREEVETILKLMEEWEKTGDFETILTYLDPNARLHENINGRELHSHGREFIHWAYEFFKNLRIETVQEDEVHIFENHFQIRVTLKGTINGRHYIFHRIIIINAIDGRIRHEVILYK | 1.53 |
| DEMRKYAHEYFKLLIELLLTGDEDSMLHNIDPNVRFDEHAENHRVHIHGMESLREWLDHFLKHAWITHIHESDSRVFNGRMHLIGHTRIYIDGKLEIKEIRIEFIVINGRITHYRVEVN | 1.52 |
| DEMRRDVDETLKELLEAWETGDEEKVSHLMDPNVRIHIGDKTLVGRELVREEVRHLRYHDYDVHHIRVIGEKADIDGVLDGNVNGRRENRKIHLHLLKVDGRWFFEETRFE | -0.004 |
| DEMTEDSERAMEILVRSILTGDEKDLIELADPNVRLDVNGRDYHGWKNFIKVFKKIMDELRIKDTELKDVRNQGEKAILDTRIHGIINGREIIFESSIDHRKINGVWLIERIIIK | 1.1 |
